Data from patent US20080255035A1, “SPARC AND METHODS OF USE THEREOF” (Abraxis BioScience, Inc., priority 2007, published 2008).

How the values were obtained:
HUVEC [1] = test: Transport of paclitaxel across EC monolayers on transwell (HUVEC); assay type: cell-based, human; conditions: cell type not specified
Procedure: A series of experiments were performed to evaluate binding and transport of paclitaxel by human umbilical vein endothelial cells (HUVEC) and human lung microvessel endothelial cells (HLMVEC) for ABX and TAX. Fluorescent paclitaxel (FP) was used as a probe and fluorescent ABX and TAX were formulated with FP to probe the binding and transport of paclitaxel across EC monolayers grown on a transwell apparatus.

[2] = tested on: HT29 colon cancer xenograft; test: s.c. human HT29 colon cancer xenograft model, 5-FU with BIO1; assay type: in vivo, nude mice
Procedure: To further explore the chemotherapy sensitizing activity of SPARC, the athymic mouse tumor xenograft system was used to assess the sensitization of HT 29 human colocancer cells to 5-flurouracil (“5-FU”).
The cancer cells were implanted subcutaneously bilaterally in athymic mice. The mice were treated with saline or 25 mg/kg of 5-FU (see Table 4). Those animals that received SPARC were treated with wild type polypeptide (SEQ ID NO:1) at a dose of 4 mg/kg, 6 mg/kg or 8 mg/kg (see Table 4). The animals were monitored for survival and xenograft growth as measures of efficacy and body weight change as a measure of toxicity.

[3] = tested on: Breast Cancer (MDA-MB-231); test: Breast cancer xenograft, SPARC / Avastin / Abraxane; assay type: in vivo, athymic nude mice; conditions: for tumor growth, addition to Abraxane compared to the other arms: breast cancer cells
Procedure: (§1) Human breast cancer (FIGS. 7 and 8) and colon cancer cells (FIGS. 9 and 10) were grown in athymic nude mice as xenografts as in EXAMPLES 12 and 13. There were 5 mice in each treatment group. Tumors were treated when they reached 200 mm^3. […] Both wild type (“BIO1”) and Q3 mutant SPARC (“BIO2”) were evaluated. The animals were monitored for survival and xenograft growth as measures of efficacy and body weight change as a measure of toxicity.

Colon Cancer (HT29) = test: Colon cancer xenograft, SPARC / Avastin / Abraxane; assay type: in vivo, athymic nude mice; conditions: for tumor growth, single agent therapy versus saline control / tumor growth, addition to Abraxane compared to Abraxane alone: colon cancer cells
Procedure: as §1

HUVEC [4] = test: In vitro angiogenesis assay (TSC CellWorks Angiokit); assay type: cell-based, human; conditions: 12 days in culture
Procedure: In this system, human umbilical vein endothelial cells (“HUVEC”) are co-cultured with other human cells (fibroblast) in collagen matrix. HUVEC cells initially form small islands within the culture matrix. HUVEC differentiate, proliferate and enter migratory phase during which they move through the matrix and form threadlike tubule structures (9-11 days). These gradually join up and form a network which resemble the capillary bed.
HUVEC cells grown in a three dimensional matrix were treated with various concentration of wild type SPARC polypeptide (SEQ ID NO: 1) or the Q3 mutant SPARC polypeptide (SEQ ID NO: 3). Capillary microtubules were visualized using immunostaining for CD31 after 12 days in culture. FIG. 6 depicts SPARC's concentration dependent effect on neoangiogensis showing characteristic examples of the capillary microtubular density in the absence of SPARC (0 μg/ml), wild type or Q3 SPARC at 10 μg/ml, and wild type or Q3 SPARC at 100 μg/ml.

## beta-methyl cyclodextrin [BMC]
HUVEC [1]
  effect on transport of paclitaxel from ABX across endothelial monolayers: inhibited

## CCN1C(=O)C=CC1=O [NEM]
HUVEC [1]
  effect on transport of paclitaxel from ABX across endothelial monolayers: inhibited

## O=c1[nH]cc(F)c(=O)[nH]1 [5-FU, 5-flurouracil]
[2]; 5-FU 25 mg/kg IP
  % BWLmax: −5.8%
[2]; 5-FU 25 mg/kg IP, post-treatment day 25
  TGI (%): 79.8%

## Avastin: angiogenesis inhibitor [reference compound]
[3]; MDA-MB-231, SPARC 150 μg/kg 2×/week, Avastin 4 mg/kg twice per week, Abraxane 15 mg/kg every fourth day ×3
  Tumor growth inhibition (TGI) relative to Abraxane alone: 16%
Colon Cancer (HT29); HT29, SPARC 150 μg/kg 2×/week, Avastin 4 mg/kg twice per week, Abraxane 15 mg/kg every fourth day ×3
  Tumor growth inhibition (TGI) relative to Abraxane alone: <0%
Colon Cancer (HT29)
  tumor growth, single agent therapy versus saline control: no better than the saline control treatments

B1: BIO2: Q3 mutant SPARC (SEQ ID NO: 3), deletion of the third glutamine in mature human SPARC (protein, listed as Homo sapiens)
chain: APQEALPDETEVVEETVAEVTEVSVGANPVQVEVGEFDDGAEETEEEVVAENPCQNHHCKHGKVCELDENNTPMCVCQDPTSCPAPIGEFEKVCSNDNKTFDSSCHFFATKCTLEGTKKGHKLHLDYIGPCKYIPPCLDSELTEFPLRMRDWLKNVLVTLYERDEDNNLLTEKQKLRVKKIHENEKRLEAGDHPVELLARDFEKNYNMYIFPVHWQFGQLDQHPIDGYLSHTELAPLRAPLIPMEHCTTRFFETCDLDNDKYIALDEWAGCFGIKQKDIDKDLVI
[3]
  tumor growth, addition to Abraxane compared to the other arms: similar, though blunted, results
Colon Cancer (HT29)
  tumor growth, addition to Abraxane compared to Abraxane alone: fails to slow tumor growth beyond that achieved with Abraxane®

B2: BIO1: wild type SPARC polypeptide (SEQ ID NO: 1) (protein, listed as Homo sapiens)
chain: APQQEALPDETEVVEETVAEVTEVSVGANPVQVEVGEFDDGAEETEEEVVAENPCQNHHCKHGKVCELDENNTPMCVCQDPTSCPAPIGEFEKVCSNDNKTFDSSCHFFATKCTLEGTKKGHKLHLDYIGPCKYIPPCLDSELTEFPLRMRDWLKNVLVTLYERDEDNNLLTEKQKLRVKKIHENEKRLEAGDHPVELLARDFEKNYNMYIFPVHWQFGQLDQHPIDGYLSHTELAPLRAPLIPMEHCTTRFFETCDLDNDKYIALDEWAGCFGIKQKDIDKDLVI
[2]; any of the SPARC concentrations used (4, 6, 8 mg/kg)
  sensitization of the cancer cells to 5-FU: failed to sensitize

B3: SPARC: Secreted Protein, Acidic, Rich in Cysteines, also known as osteonectin; wild type or Q3 not told apart at the place (protein)
chain: B2 chain
HUVEC [4]; 10 μg/ml
  angiogenic activity (capillary microtubule density, CD31): proangiogenic
HUVEC [4]; 100 μg/ml
  angiogenic activity (capillary microtubule density, CD31): inhibits angiogenesis
[3]
  tumor growth, addition to Abraxane compared to the other arms: marked decreases in tumor growth
Colon Cancer (HT29)
  tumor growth, addition to Abraxane compared to Abraxane alone: further decreases in tumor growth
  tumor growth, single agent therapy versus saline control: no better than the saline control treatments
